Biological target: MGF505-4R fused to NanoLuciferase fragment N1 (pDEST-N2H-N1) (African swine fever virus, Georgia 2007/1 strain)
Assay: split reporter (BiFC, NanoBiT)

Question: How did the luminescence score (fold increase over N1-MGF505-4R with empty N2 vector) turn out when “swine TRAF3 fused to NanoLuciferase fragment N2 (pDEST-N2H-N2) (natural protein)” was run?
Answer: Its luminescence score (fold increase over N1-MGF505-4R with empty N2 vector) is 8.5 fold.

From PMC10961335
